This is an account of results in PMC10786891, “Massively parallel profiling of RNA-targeting CRISPR-Cas13d”.

T1: EsCas13d, nuclease-dead (Eubacterium siraeum, UniProt B0MS50, R295A;H300A;R849A;H854A)
T1 sequence: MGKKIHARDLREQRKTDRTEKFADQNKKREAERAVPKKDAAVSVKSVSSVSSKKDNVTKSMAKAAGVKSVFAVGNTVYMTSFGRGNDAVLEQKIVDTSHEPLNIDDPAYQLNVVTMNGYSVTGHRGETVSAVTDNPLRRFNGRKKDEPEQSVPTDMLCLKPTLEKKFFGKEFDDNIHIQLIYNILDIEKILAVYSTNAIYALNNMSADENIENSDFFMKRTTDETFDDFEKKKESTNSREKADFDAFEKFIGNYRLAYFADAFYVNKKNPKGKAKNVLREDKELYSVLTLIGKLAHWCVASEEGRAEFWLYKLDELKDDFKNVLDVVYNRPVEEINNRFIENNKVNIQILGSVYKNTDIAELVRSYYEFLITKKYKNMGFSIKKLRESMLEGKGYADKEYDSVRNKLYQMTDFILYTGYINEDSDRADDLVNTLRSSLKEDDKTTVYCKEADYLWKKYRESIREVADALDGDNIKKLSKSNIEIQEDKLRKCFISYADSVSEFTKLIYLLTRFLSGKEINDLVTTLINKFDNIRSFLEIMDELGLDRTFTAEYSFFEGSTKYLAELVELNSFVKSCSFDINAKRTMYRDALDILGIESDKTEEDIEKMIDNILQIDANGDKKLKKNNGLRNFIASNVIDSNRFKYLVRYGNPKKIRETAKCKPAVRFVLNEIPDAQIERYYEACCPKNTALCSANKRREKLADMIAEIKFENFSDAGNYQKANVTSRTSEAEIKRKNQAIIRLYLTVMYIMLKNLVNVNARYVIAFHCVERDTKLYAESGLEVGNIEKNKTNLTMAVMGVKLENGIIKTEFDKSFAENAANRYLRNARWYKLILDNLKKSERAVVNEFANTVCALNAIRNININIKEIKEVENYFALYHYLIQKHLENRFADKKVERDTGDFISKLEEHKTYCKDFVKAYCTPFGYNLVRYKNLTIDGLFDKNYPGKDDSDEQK

B1: target 1 insC 3' of 22,insG 3' of 10 (mixed)
RNA 1: CACCCGUGCAAAAAUGCAGGGGUCUAAAACUGAGCGGAUAACCUCUCUAUGG
RNA 2: GGGAAUGGAUCCACAUCUACGAAUUCGUACCCAUAGAGAGGUUGAUCCGCUCACCGAGAUCGGAAGAGCACACGU
B2: target 1 insU 3' of 13,insC 3' of 9 (mixed)
RNA 1: CACCCGUGCAAAAAUGCAGGGGUCUAAAACUGAGCGGAUAACCUCUCUAUGG
RNA 2: GGGAAUGGAUCCACAUCUACGAAUUCGUACCAUAGAGAGUGUUACUCCGCUCACCGAGAUCGGAAGAGCACACGU
B3: target 1 insC 3' of 22,insA 3' of 22 (mixed)
RNA 1: CACCCGUGCAAAAAUGCAGGGGUCUAAAACUGAGCGGAUAACCUCUCUAUGG
RNA 2: GGGAAUGGAUCCACAUCUACGAAUUCGUACCACAUAGAGAGGUUAUCCGCUCACCGAGAUCGGAAGAGCACACGU
B4: target 1 A1G,U11A (mixed)
RNA 1: CACCCGUGCAAAAAUGCAGGGGUCUAAAACUGAGCGGAUAACCUCUCUAUGG
RNA 2: GGGAAUGGAUCCACAUCUACGAAUUCGUACCAUAGAGAGGAUAUCCGCUCGCCGAGAUCGGAAGAGCACACGU
B5: target 1 insG 3' of 9,insG 3' of 7 (mixed)
RNA 1: CACCCGUGCAAAAAUGCAGGGGUCUAAAACUGAGCGGAUAACCUCUCUAUGG
RNA 2: GGGAAUGGAUCCACAUCUACGAAUUCGUACCAUAGAGAGGUUAGUCGCGCUCACCGAGAUCGGAAGAGCACACGU
B6: target 1 A1C,U11A (mixed)
RNA 1: CACCCGUGCAAAAAUGCAGGGGUCUAAAACUGAGCGGAUAACCUCUCUAUGG
RNA 2: GGGAAUGGAUCCACAUCUACGAAUUCGUACCAUAGAGAGGAUAUCCGCUCCCCGAGAUCGGAAGAGCACACGU
B7: target 1 insU 3' of 12,insG 3' of 8 (mixed)
RNA 1: CACCCGUGCAAAAAUGCAGGGGUCUAAAACUGAGCGGAUAACCUCUCUAUGG
RNA 2: GGGAAUGGAUCCACAUCUACGAAUUCGUACCAUAGAGAGGUUUAUGCCGCUCACCGAGAUCGGAAGAGCACACGU
B8: target 1 insC 3' of 20,insC 3' of 14 (mixed)
RNA 1: CACCCGUGCAAAAAUGCAGGGGUCUAAAACUGAGCGGAUAACCUCUCUAUGG
RNA 2: GGGAAUGGAUCCACAUCUACGAAUUCGUACCACUAGAGACGGUUAUCCGCUCACCGAGAUCGGAAGAGCACACGU
B9: target 1 insA 3' of 10,insU 3' of 1 (mixed)
RNA 1: CACCCGUGCAAAAAUGCAGGGGUCUAAAACUGAGCGGAUAACCUCUCUAUGG
RNA 2: GGGAAUGGAUCCACAUCUACGAAUUCGUACCAUAGAGAGGUUAAUCCGCUCAUCCGAGAUCGGAAGAGCACACGU
B10: target 1 insA 3' of 10,insG 3' of 1 (mixed)
RNA 1: CACCCGUGCAAAAAUGCAGGGGUCUAAAACUGAGCGGAUAACCUCUCUAUGG
RNA 2: GGGAAUGGAUCCACAUCUACGAAUUCGUACCAUAGAGAGGUUAAUCCGCUCAGCCGAGAUCGGAAGAGCACACGU
B11: target 1 insG 3' of 19,insG 3' of 19 (mixed)
RNA 1: CACCCGUGCAAAAAUGCAGGGGUCUAAAACUGAGCGGAUAACCUCUCUAUGG
RNA 2: GGGAAUGGAUCCACAUCUACGAAUUCGUACCAUGGAGAGAGGUUAUCCGCUCACCGAGAUCGGAAGAGCACACGU
B12: target 1 insC 3' of 22,insC 3' of 8 (mixed)
RNA 1: CACCCGUGCAAAAAUGCAGGGGUCUAAAACUGAGCGGAUAACCUCUCUAUGG
RNA 2: GGGAAUGGAUCCACAUCUACGAAUUCGUACCCAUAGAGAGGUUAUCCCGCUCACCGAGAUCGGAAGAGCACACGU
B13: target 1 A9C,U11A (mixed)
RNA 1: CACCCGUGCAAAAAUGCAGGGGUCUAAAACUGAGCGGAUAACCUCUCUAUGG
RNA 2: GGGAAUGGAUCCACAUCUACGAAUUCGUACCAUAGAGAGGAUCUCCGCUCACCGAGAUCGGAAGAGCACACGU
B14: target 1 insG 3' of 18,insU 3' of 9 (mixed)
RNA 1: CACCCGUGCAAAAAUGCAGGGGUCUAAAACUGAGCGGAUAACCUCUCUAUGG
RNA 2: GGGAAUGGAUCCACAUCUACGAAUUCGUACCAUAGGAGAGGUUAUUCCGCUCACCGAGAUCGGAAGAGCACACGU
B15: target 1 G12A,G15C (mixed)
RNA 1: CACCCGUGCAAAAAUGCAGGGGUCUAAAACUGAGCGGAUAACCUCUCUAUGG
RNA 2: GGGAAUGGAUCCACAUCUACGAAUUCGUACCAUAGACAGAUUAUCCGCUCACCGAGAUCGGAAGAGCACACGU
B16: target 1 insA 3' of 15,insG 3' of 9 (mixed)
RNA 1: CACCCGUGCAAAAAUGCAGGGGUCUAAAACUGAGCGGAUAACCUCUCUAUGG
RNA 2: GGGAAUGGAUCCACAUCUACGAAUUCGUACCAUAGAGAAGGUUAGUCCGCUCACCGAGAUCGGAAGAGCACACGU
B17: target 1 insC 3' of 22,insU 3' of 17 (mixed)
RNA 1: CACCCGUGCAAAAAUGCAGGGGUCUAAAACUGAGCGGAUAACCUCUCUAUGG
RNA 2: GGGAAUGGAUCCACAUCUACGAAUUCGUACCCAUAGUAGAGGUUAUCCGCUCACCGAGAUCGGAAGAGCACACGU
B18: target 1 C4A,U8A (mixed)
RNA 1: CACCCGUGCAAAAAUGCAGGGGUCUAAAACUGAGCGGAUAACCUCUCUAUGG
RNA 2: GGGAAUGGAUCCACAUCUACGAAUUCGUACCAUAGAGAGGUUAACCGAUCACCGAGAUCGGAAGAGCACACGU
B19: target 1 insG 3' of 7,insA 3' of 4 (mixed)
RNA 1: CACCCGUGCAAAAAUGCAGGGGUCUAAAACUGAGCGGAUAACCUCUCUAUGG
RNA 2: GGGAAUGGAUCCACAUCUACGAAUUCGUACCAUAGAGAGGUUAUCGCGCAUCACCGAGAUCGGAAGAGCACACGU
B20: target 1 insA 3' of 10,insA 3' of 2 (mixed)
RNA 1: CACCCGUGCAAAAAUGCAGGGGUCUAAAACUGAGCGGAUAACCUCUCUAUGG
RNA 2: GGGAAUGGAUCCACAUCUACGAAUUCGUACCAUAGAGAGGUUAAUCCGCUCAACCGAGAUCGGAAGAGCACACGU
B21: target 1 insA 3' of 10,insC 3' of 1 (mixed)
RNA 1: CACCCGUGCAAAAAUGCAGGGGUCUAAAACUGAGCGGAUAACCUCUCUAUGG
RNA 2: GGGAAUGGAUCCACAUCUACGAAUUCGUACCAUAGAGAGGUUAAUCCGCUCACCCGAGAUCGGAAGAGCACACGU
B22: target 1 insC 3' of 19,insA 3' of 17 (mixed)
RNA 1: CACCCGUGCAAAAAUGCAGGGGUCUAAAACUGAGCGGAUAACCUCUCUAUGG
RNA 2: GGGAAUGGAUCCACAUCUACGAAUUCGUACCAUCAGAAGAGGUUAUCCGCUCACCGAGAUCGGAAGAGCACACGU
B23: target 1 insG 3' of 21,insU 3' of 2 (mixed)
RNA 1: CACCCGUGCAAAAAUGCAGGGGUCUAAAACUGAGCGGAUAACCUCUCUAUGG
RNA 2: GGGAAUGGAUCCACAUCUACGAAUUCGUACCGAUAGAGAGGUUAUCCGCUCUACCGAGAUCGGAAGAGCACACGU
B24: target 1 C7G,A9C (mixed)
RNA 1: CACCCGUGCAAAAAUGCAGGGGUCUAAAACUGAGCGGAUAACCUCUCUAUGG
RNA 2: GGGAAUGGAUCCACAUCUACGAAUUCGUACCAUAGAGAGGUUCUGCGCUCACCGAGAUCGGAAGAGCACACGU
B25: target 1 insA 3' of 7,insG 3' of 7 (mixed)
RNA 1: CACCCGUGCAAAAAUGCAGGGGUCUAAAACUGAGCGGAUAACCUCUCUAUGG
RNA 2: GGGAAUGGAUCCACAUCUACGAAUUCGUACCAUAGAGAGGUUAUCAGCGCUCACCGAGAUCGGAAGAGCACACGU
B26: target 1 insA 3' of 15,insG 3' of 7 (mixed)
RNA 1: CACCCGUGCAAAAAUGCAGGGGUCUAAAACUGAGCGGAUAACCUCUCUAUGG
RNA 2: GGGAAUGGAUCCACAUCUACGAAUUCGUACCAUAGAGAAGGUUAUCGCGCUCACCGAGAUCGGAAGAGCACACGU
B27: target 1 U3G,U10C (mixed)
RNA 1: CACCCGUGCAAAAAUGCAGGGGUCUAAAACUGAGCGGAUAACCUCUCUAUGG
RNA 2: GGGAAUGGAUCCACAUCUACGAAUUCGUACCAUAGAGAGGUCAUCCGCGCACCGAGAUCGGAAGAGCACACGU

The target in this data set is T1, EsCas13d, nuclease-dead. The experiment in a line: crRNA (strand 1, pre-loaded); Mg2+; 40 mM Tris-HCl pH 7.5, 150 mM NaCl, 6 mM MgCl2, 1 mM DTT, 0.1% Tween-20, 0.2 mg/ml BSA; 25 C; 10 min per concentration, then washed. The following applies: tags: His6-TwinStrep-SUMO cleaved; N-terminal SNAP kept (SNAP-Surface 488); label: 3' end held by stalled T7 RNA polymerase.
For the molecule B1, binding was characterised by a dissociation constant (Kd) of 34.4 ± 2.2 nM.

B2 yielded a dissociation constant Kd of 18.8 ± 2.4 nM.

The molecule B3 displayed a dissociation constant Kd of 10 ± 0.9 nM.

B4 registered a Kd of 34 ± 4 nM. This Kd lies about 3.4-fold higher than the previous one.

B5 showed a Kd of 10.7 ± 0.4 nM.

Regarding B6, the affinity, expressed as Kd, was 44 ± 10 nM.

On to B7, for which the Kd worked out at 9.41 ± 0.34 nM.

In the case of B8, binding was put at a Kd of 3.1 ± 0.5 nM.

The molecule B9 showed a Kd of 13.9 ± 0.8 nM.

Molecule B10 had a Kd of 14.4 ± 1.2 nM.

In the case of B11, the Kd turned out to be 56 ± 15 nM.

The molecule B12 had a dissociation constant Kd of 18 ± 1.8 nM.

For the molecule B13, the dissociation constant Kd worked out at 59 ± 13 nM.

Molecule B14 had a dissociation constant (Kd) of 71 ± 10 nM.

The molecule B15 showed a Kd of 57 ± 15 nM.

As for B16, the Kd was 8.7 ± 0.7 nM. This Kd lies about 6.6-fold lower than the previous one.

B17 registered an equilibrium dissociation constant (Kd) of 25.2 ± 2.7 nM.

Regarding B18, the affinity, expressed as Kd, was 25.3 ± 2.1 nM.

In turn, B19 showed a Kd of 5.49 ± 0.24 nM.

B20: the Kd was 14 ± 0.8 nM.

In the case of B21, the affinity, expressed as Kd, was 12.6 ± 0.6 nM. The Kd values of the last two molecules are within 1.5-fold of each other.

For the molecule B22, the Kd was determined as 49 ± 7 nM.

B23: the dissociation constant (Kd) was determined as 70 ± 9 nM.

Consider B24, for which the Kd is 9.26 ± 0.33 nM.

Turning to B25, binding was characterised by a dissociation constant (Kd) of 13 ± 0.9 nM.

For the molecule B26, the Kd came out at 6.15 ± 0.19 nM. Compared with the last molecule, the Kd is about 2.1-fold lower.

For the molecule B27, binding was characterised by a dissociation constant (Kd) of 14 ± 0.6 nM.
